Measurements published in patent publication US7479478B2, “Human parathyroid hormone modifications, preparation and use” (The General Hospital Corporation, priority 1998, dated 2009).
“Also recorded” adds a separate entry of the source. No end group written: not given here.

How the values were obtained:
rat PTH-1 receptors = biological target: T1, rat PTH-1 receptors (Rattus norvegicus, UniProt P25961); experiment: AC activation (cAMP) in EW5 cells; assay type: cell-based
T1 construct: expressed in transfected cells
T1 sequence (P25961 27-591): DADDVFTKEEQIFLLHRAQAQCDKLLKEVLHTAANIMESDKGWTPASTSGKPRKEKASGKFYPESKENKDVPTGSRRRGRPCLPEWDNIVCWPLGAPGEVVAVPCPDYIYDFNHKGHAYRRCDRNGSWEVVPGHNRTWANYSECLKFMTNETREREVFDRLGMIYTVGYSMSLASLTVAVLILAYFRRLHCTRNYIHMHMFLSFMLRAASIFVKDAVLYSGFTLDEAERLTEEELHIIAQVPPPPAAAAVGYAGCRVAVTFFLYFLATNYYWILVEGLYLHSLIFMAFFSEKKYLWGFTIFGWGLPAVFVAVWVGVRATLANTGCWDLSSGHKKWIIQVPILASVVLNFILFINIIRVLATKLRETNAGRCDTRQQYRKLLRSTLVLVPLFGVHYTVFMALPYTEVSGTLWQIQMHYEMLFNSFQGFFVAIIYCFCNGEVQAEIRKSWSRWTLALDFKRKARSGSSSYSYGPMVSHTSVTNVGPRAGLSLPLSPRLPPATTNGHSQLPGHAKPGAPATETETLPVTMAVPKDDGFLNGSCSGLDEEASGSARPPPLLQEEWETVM
Method: HKRK B7 or EW5 cells (32), subclones of LLC-PKI renal epithelial cells that stably express human or rat PTH-1 receptors (950,000 and 320,000 receptors/cell, respectively), were maintained under 5% CO2 in air in Dulbecco's modified essential medium containing 7% fetal bovine serum (FBS) and 1% penicillin/streptomycin (GIBCO-BRL, Grand Island, N.Y.). HEK-293 and COS-7 cells were cultured similarly, except that 10% FBS was used in the medium. Cells were seeded into 24-well plates two days before assay at a density of 2-2.5×10^5 cells/well (HKRK B7 or EW 5 cells) or 6×10^5 cells/well (in 6-well plates) (HEK-293 cells). […]
Intracellular cAMP accumulation, PLC activation and PTHR binding affinity were measured as previously reported (Bringhurst, F. R., et al., Endocrinology 132(5):2090-2098 (1993); Guo, J., et al., Endocrinology 136(9):3884-3891 (1995)). Intracellular cAMP accumulation was measured in extracts of cells that were exposed to human PTH peptides in the presence of isobutylmethyxanthine (IBMX, 1 mM) at 37° C. for 15 min. After terminating the reactions by aspiration and freezing in liquid nitrogen, cell monolayers were extracted with 50 mM HCl and cAMP was measured using a radioimmunoassay kit (Dupont-New England Nuclear, Boston, Mass.). […]

human PTH-1 receptors = biological target: T2, human PTH-1 receptors (Homo sapiens, UniProt Q03431); experiment: PLC activation (IP3 formation) in HKRK B7 cells; assay type: cell-based; details: HKRK B7 cells
T2 construct: expressed in transfected cells
T2 sequence (Q03431 27-593): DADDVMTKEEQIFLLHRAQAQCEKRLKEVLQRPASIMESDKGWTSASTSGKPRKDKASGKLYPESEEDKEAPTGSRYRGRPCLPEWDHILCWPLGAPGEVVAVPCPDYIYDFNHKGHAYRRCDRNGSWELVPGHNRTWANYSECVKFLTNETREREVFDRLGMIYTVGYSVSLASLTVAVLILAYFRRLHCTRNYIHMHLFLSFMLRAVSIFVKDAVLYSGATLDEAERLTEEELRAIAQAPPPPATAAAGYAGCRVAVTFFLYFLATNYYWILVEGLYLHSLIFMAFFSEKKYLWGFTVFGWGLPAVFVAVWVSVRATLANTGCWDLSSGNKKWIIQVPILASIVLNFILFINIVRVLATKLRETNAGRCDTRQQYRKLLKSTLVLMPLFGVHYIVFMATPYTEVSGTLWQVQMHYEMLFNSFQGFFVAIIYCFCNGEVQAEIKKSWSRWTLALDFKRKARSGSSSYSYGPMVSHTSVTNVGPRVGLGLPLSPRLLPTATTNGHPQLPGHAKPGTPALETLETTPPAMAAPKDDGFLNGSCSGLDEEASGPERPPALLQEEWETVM
Method: HKRK B7 or EW5 cells (32), subclones of LLC-PKI renal epithelial cells that stably express human or rat PTH-1 receptors (950,000 and 320,000 receptors/cell, respectively), were maintained under 5% CO2 in air in Dulbecco's modified essential medium containing 7% fetal bovine serum (FBS) and 1% penicillin/streptomycin (GIBCO-BRL, Grand Island, N.Y.). HEK-293 and COS-7 cells were cultured similarly, except that 10% FBS was used in the medium. Cells were seeded into 24-well plates two days before assay at a density of 2-2.5×10^5 cells/well (HKRK B7 or EW 5 cells) or 6×10^5 cells/well (in 6-well plates) (HEK-293 cells). In experiments involving HEK-293 cells, DNA transfections were performed 24 hr after plating and inositol radiolabel was added 24 hr thereafter (see below). COS-7 cell transfections were performed as previously described (Gardella, T. J., et al., Endocrinology 132(5):2024-2030 (1993))
PLC was activated by PTH agonists in the presence of 30 mM LiCl at 37° C. for 30 min after 16 hr of labeling with [^3H]myo-inositol (3 uCi/ml) in serum-free medium containing 0.1% bovine serum albumin. The reactions were stopped by rapid aspiration and addition of cold 5% TCA. Water-soluble radiolabeled inositol trisphosphate (IP3) was isolated after ether extraction by ion-exchange chromatography (Guo, J., et al., Endocrinology 136(9):3884-3891 (1995)). In experiments involving HEK 293 cells, cells previously transfected with human PTHR cDNA (in the pcDNA1 expression vector HKRK) using Lipofectamine (Gibco BRL) were labeled with [^3H]myo-inositol and assayed as described above, except that total water-soluble [^3H]inositol polyphosphates were collected as a single fraction from the ion-exchange columns.

| Substance | fold impairment of EC50 for AC at the rat PTH-1 receptor relative to hPTH-(1-34) (rat PTH-1 receptors) | fold reduction of PLC potency versus hPTH(1-34) (human PTH-1 receptors) | PLC activation (IP3 formation), result in words (human PTH-1 receptors; up to 1000 nM or 10 μM) | signaling (AC) via rat PTH-1 receptors, result in words (rat PTH-1 receptors; compared with human PTH-1 receptor) | fold less potent than hPTH-(1-29) in PLC activation (human PTH-1 receptors) | EC50 (human PTH-1 receptors; read-out: EC50 for PLC activity) |
| --- | --- | --- | --- | --- | --- | --- |
| GVSEIQLMHNLGKHLNSMRRVEWLRKKL [[Gly^1,Arg^19]hPTH-(1-28)] | about 6 fold | approximately 100 fold | no increase in PLC activity; also recorded: strikingly and selectively impaired |  |  |  |
| SVSEIQLMHNLGKHLNSMERVEWLRKKL-NH2 [hPTH-(1-28)] |  |  |  | more severely impaired | approximately 5 fold | 6 µM |
